Results published in publication doi:10.1101/2023.12.05.570191 (bioRxiv, 2023).

Biological target: the molecule itself
Experiment: FRET or BRET

B1: Cy5-labelled metallated Zur (Zur^Cy5, Cy5 at C113) (natural protein, E. coli)
chain: MEKTTTQELLAQAEKISAQRNVRLTPQRLEVLRLMSLQDGAISAYDLLDLLREAEPQAKPPTVYRALDFLLEQGFVHKVESTNSYVLCHLFDQPTHTSAMFICDRCGAVKEECAEGVEDIMHTLAAKMGFALRHNVIEAHGLCAACVEVEASRHPEQSQHDHSVQVKKKPR
modifications: Cy5 (maleimide chemistry) at C113 of one monomer of the dimer
  binding result: binds
